B1: Dipeptidyl peptidase III from Corallococcus sp. EGB (recombinant CoDPP III) (enzyme, UniProt A0A5H1ZR28 1-537, looked up)
chain: RLPDAPTLKRMTARFAPVDVKVDVSKLPDAEKRALAKILQAAKIMDPLFLSQAWAGNPTLLLDLVEDTTPLGKERLHAFLLNKGPWSRLDEAKPFIPGVPPKPDEGNFYPAGATKAEVEAWVKSLPEAQQHAATGFFTTVRKGPDGKFLTVPYSVEYQGELGMAAKLLREAAALTQQSTLKRFLETRAEAFLSNDYYASEVAWMELDASVEPTIGPYEVYEDGWFNYKAAFEAFIGVRDEAETQKLAKFSAELQELENNLPIEPALRNPKLGALAPIRVINSLYSSGDGNRGVQTAAYNLPNDERVAAEKGTKRVMLKNIQEAKFQRVLVPIAKVALPAKDRKDVSFDAFFTHILMHELMHGLGPHNVTVAGKQTTVRQALQASSSAIEEAKADISGLWALQRLVDKGTLDKELQRTMYTTFLASAFRSIRFGIDEAHGKGIALQLNHFLDTGAVKVNADGTFEVVPDKMQASVTSLTNQLMSLQAKGDRAAAEELLAKQGVVRPSVQKVLEKLKNVPVDIEPRYVTAESLVKDFGA
notes: signal peptide in the construct; dipeptidyl peptidase III (CoDPP III) of Corallococcus sp; EGB, open reading frame of 1719 bp encoding 572 amino acids, predicted signal peptide residues 1 to 22; cloned into Nde I and Xho I sites of pET29a(+); The Xho I site of pET29a probably adds Leu-Glu before the His6 tag (surmised); also called native DPP III; source: E. coli BL21(DE3), purified (CM-Sepharose …)
B2: Selenomethionine-labelled dipeptidyl peptidase III from Corallococcus sp. EGB (enzyme, UniProt A0A5H1ZR28 1-537, looked up)
chain: B1 chain
modifications: selenomethionine (Se-Met labelled)
notes: signal peptide in the construct; dipeptidyl peptidase III (CoDPP III) of Corallococcus sp; EGB, same pET29a-Codpp III construct as m1 (572 amino acids, predicted signal peptide residues 1 to 22); the final model lacks 27 amino acids at the N-terminus and 8 (chain A) or 12 (chain B) at the C-terminus; Same construct as m1, expressed in a methionine auxotroph with Se-Met; also called Se-CoDPPIII; …

Key:
[1] = target: the molecule itself; assay: SEC; HiLoad 16/600 Superdex 200 pg, 20 mM Tris-HCl (pH 7.0) with 0.1 M NaCl, 1 mL/min; mass standards ovalbumin, conalbumin, aldolase, ferritin
[2] = target: the molecule itself; assay: crystal structure; Se-Met-labelled protein, sitting-drop vapor diffusion at 20 °C, 0.1 M sodium acetate trihydrate pH 4.59, 24% w/v PEG 3350, 0.01 M TCEP; SAD, 1.90 Å; ligand-free, two molecules in the asymmetric unit

Protein	stoichiometry N [1]	binding result [2]
B1	2	–
B2	–	binds

Source: PMC9820243, “Structural and Functional Characterization of a New Bacterial Dipeptidyl Peptidase III Involved in Fruiting Body Formation in Myxobacteria” (International Journal of Molecular Sciences, 2022)
